# Assay results from paper PMC9045202.
# Target: EFG displayed on the surface of E. coli BL21 as a fusion with InaZN and mCherry (BL21-pEImC-EFG) (Escherichia coli (ExPEC strain RS218)) (UniProt P0A6M8)
# Test: fluorescence intensity of labelled ligand bound to bacteria, competition; BL21-pEImC-EFG incubated with a mixture of fluor-TF (20 μg/mL) and an excess of unlabeled holo-TF; fluorescence of 10^7 bacterial cells, excitation 485 nm, emission 535 nm
# Chain of UniProt P0A6M8 (P0A6M8 whole entry, the tested form may be a part): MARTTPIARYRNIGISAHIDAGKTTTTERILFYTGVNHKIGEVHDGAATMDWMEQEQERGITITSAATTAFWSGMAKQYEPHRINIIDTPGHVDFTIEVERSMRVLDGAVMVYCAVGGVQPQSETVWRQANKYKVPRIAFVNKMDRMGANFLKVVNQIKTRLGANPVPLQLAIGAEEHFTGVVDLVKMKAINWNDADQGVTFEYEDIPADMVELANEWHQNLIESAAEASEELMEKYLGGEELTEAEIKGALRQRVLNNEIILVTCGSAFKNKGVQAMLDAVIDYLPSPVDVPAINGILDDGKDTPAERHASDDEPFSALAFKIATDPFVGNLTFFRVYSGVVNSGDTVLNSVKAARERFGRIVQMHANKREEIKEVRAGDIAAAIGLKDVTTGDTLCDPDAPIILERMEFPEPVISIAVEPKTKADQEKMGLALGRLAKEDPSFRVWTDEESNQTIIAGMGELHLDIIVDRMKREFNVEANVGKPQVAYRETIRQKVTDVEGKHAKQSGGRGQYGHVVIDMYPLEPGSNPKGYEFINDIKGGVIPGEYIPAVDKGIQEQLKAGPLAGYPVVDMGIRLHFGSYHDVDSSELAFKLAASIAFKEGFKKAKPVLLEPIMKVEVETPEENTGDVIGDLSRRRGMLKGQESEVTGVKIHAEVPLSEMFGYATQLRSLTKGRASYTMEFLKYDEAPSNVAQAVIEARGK
substance,measurement,value
"holo-transferrin (iron-saturated holo-TF), unlabeled (from UniProt P02787 20-698) (natural protein)",fluorescence intensity of bound fluor-TF with an excess of unlabeled holo-TF,76.4%
